Key:
[1] = Tong et al, Pharm. Res. (2001) 18, 852-858; cited from earlier work
[2] = Integrity of insulin by GPC, HPLC, circular dichroism and fluorescence spectroscopy; assay type: physicochemical
Method: The formulations were also assessed for the integrity of insulin using gel permeation chromatography (GPC), high performance liquid chromatography (HPLC), circular dichroism and fluorescence spectroscopy.

Molecule: OCc1cc(C(O)CNCCCCCCOCCCCc2ccccc2)ccc1O (stereo not shown) [SX, Salmeterol Xinafoate]
- aqueous solubility [1]: 66 to 81 µg/mL

Molecule: insulin
- chemical degradation of insulin during the formulation process ([2]; GPC and HPLC chromatograms compared to standard insulin): not chemically degraded
- secondary structures of insulin after processing ([2]; far-UV circular dichroism, from the nanoparticles after delivery from the pMDI vs unprocessed control): retained
- tertiary structures of insulin after processing ([2]; near-UV CD, peak around 275 nm, confirmed by fluorescence spectra): retention
